Assay results as given in patent publication US20240287489A1, “CHITINOLYTIC ENZYME-BASED PLANT PROTECTION AGENTS” (GLOBACHEM NV, priority 2021, published 2024).

B1: Chitinase 1: chitinolytic enzyme from P. orarium, SEQ ID NO: 1, recombinant with PelB signal peptide and 6×His tag; run 19 = 2 μM alone (protein, listed as Photobacterium orarium)
chain: MAAPGTPQIAWMETDYAIVEVDQAASAYKSLITVKPAAEVPVAWQRYSGETADLWKVKLNGNVVFEQSIAPASSGAGSTTLSVAQGGQYAMTVELCSGTGAAQACTSSAATNIVVADTDGSHLDPLPMNVDANNGNYTTPANTVVGAYFVEWGVYGRKFSVDNIPAQNLTHILYGFIPICGPNESLGEIENGNSLAALNRACQGTPDYEVVIHDPWAAVQMPQPQSGHTHSTPYKGTYGQMMALKQRYPDLKIVPSVGGWTLSDPFYSFTDKAKRDIFVASVKKFLKTWKFFDGVDIDWEFPGGKGANANLGDPVNDGPAYVALMRELRVMLDELEAETGRQYELTSAIGVGYDKIDVVNYADAVQYMDYIFAMTYDFFGGWNNVPGHQTALFCGSHMSADVCNGTGVDENGVPRQGPAYTAAHGIDRLLAQGVPANKLVLGTAMYARGWTGVTEASMTDPTNPMTGTGNGMVPGSWEPGVIDYKDVVTDYINNAAVTKGYDAQAEAPWAYNPSNGNLITYDDRRSVLAKGQYVRNLGLAGLFAWEIDADNGDILNAMQDSLAGGGGNYAPVAKAGADQVVNGAASVTLDGSASSDRDGQIVSYQWTQTSGPALTLTGSDTATATVAVPEVTADTQYAFTLTVTDNAGDTATDSVTVTAKAPGSNTAPVVAVSGPATASAGDTVVLDASQSSDADGDTLTFTWTVPAGVNATVNGATVSFVADSYTVDTPLNFTVAVSDGTDSVTESVTVTVLKDGGSTGCTNAWATGGVYNSGDIVTHSGKSWKAKWWTTGEEPGTTGEWGVWEDLGAANCQIE
modifications: PelB signal peptide; 6xHis tag; Chitinase 1
notes: run 19 = 2 μM alone
B2: Chitinase 2: chitinolytic enzyme from P. orarium, SEQ ID NO: 2, recombinant with PelB signal peptide and 6×His tag (protein, listed as Photobacterium orarium)
chain: MATANYNPDGVYSAGEQVIYQGATYQALRSTENEAPDTYLGDAWQQVNAQNVTSSTTPTYPAYQSSAVYVGGDHVSYNSQIYKAKWWTQGEAPDATPGTGVWEWVSADNNPDPGPGPDPDPTPEPTPANGIIGQNPDGSYIMSKTYLDAREAELTSSPEFAAVLASISTRDNAVVEAVVPGLSTNPDNVKRVEALISEQKWDALFPERNVVYTYSNFLKAVAKFKGFCATYTDERAAQSDAICAKSLAVMFAHFTQETGAHNPHSPYEEWRQGLFFVREAGCSEEASSCGYNSECAASNWQTEQWPCGTNPDGSYVKYFGRGAKQLSYHYNYGPFSDFIFNDVNVLLQDPDRVADSWLNLASAVFFFVYPQPPKPSMLHVIDGTWQPTAADIAEKRVPGFGVTTMIINGGIECTLDTEKPQSVNRIKYYRGHAAALGVAIPADEQLGCAGMKAFKKTGDSTFGLYWENDWSYYPDNPGGSSFACRIESGYQTAHTTLKKGDYAKCIQKYYGVTIE
modifications: PelB signal peptide; 6xHis tag; Chitinase 2

Key:
[1] = Reducing end assay, specific chitinase activity of expression and purification fractions; format: biochemical; settings: chitin powder, 16 h at 30° C.
Protocol: Integrity and correctness of the constructs was confirmed by colony PCR and Sanger-sequencing. All constructs were transformed into E. coli BL21 and expressed recombinantly. Expression levels of the target enzymes were determined densitometrically after immunoblot detection for cytosolic and secreted expression. Enzymatic activity was determined for all samples using a reducing end assay. […] Furthermore, it was confirmed that these enzymes are efficiently released into the culture supernatant, rendering cell lysis unnecessary for future production cycles.
A two-step purification of the selected recombinant enzymes with PelB signal peptide form the culture supernatant was carried out with an initial ammonium sulfate precipitation step and a sequential IMAC purification of the solubilized protein precipitate. Elution fractions were pooled and an SDS-PAGE and immunoblot was prepared loading the same volume for each sample (FIG. 4). Expression levels of the five chitinases varied largely, and C1 was detected in much greater abundance relative to the others. […] The observed molecular weight of all enzymes in SDS-PAGE gel and immunoblot was not in accordance with the expected theoretical molecular weight taking into account that a 6×His tag was added C-terminally to the enzymes and in general, bands for all enzymes were detected at a higher molecular weight. For all samples, unspecific bands could detected at ˜25 kDa and ˜50 kDa after IMAC purification, most likely representing host cell protein-contaminations. The amount of protein in the culture media, ammonium sulfate concentrates and the final dialyzed elution fractions was determined using the BCA assay and the same fractions were incubated with chitin powder for 16 h at 30° C. followed by the quantification of reducing sugars to measure specific chitinase activity (Table 4.2). Thereby it was confirmed that all target enzymes were successfully enriched during purification according to the specific activity.
(§1) For the determination of enzymatic activity of recombinant chitinases, a reducing end assay was carried out [Svein et al., Carbohydr Polym, 2004. 56(1): p. 35-39.]. Fractions containing chitinases were incubated with 5% (w/v) chitin powder extracted from shrimp shells (˜400.000 g/mol; Carl Roth) in MAT buffer for 2 h in an overhead shaker at ambient temperature (standard conditions). Samples were centrifuged at 13000×g for 2 min and 40 μl of the supernatant was mixed with 40 μl 0.5 M NaOH and 40 μL of a reagent containing 1.5 mg/ml 3-Methyl-2-benzothiazolinonhydrazon and 0.75 mg/ml Dithiothreitol. Samples were incubated at 80° C. for 15 min and then thoroughly mixed with 80 μl of 0.5% (w/v) FeNH4(SO4)2)×12H2O, 0.5% (w/v) sulfamic acid and 0.25 M HCl. After cooling down to room temperature, 100 μl of the samples were measured at 620 nm. A calibration curve of N-acetyl-glucosamine was constructed freshly for each measuring cycle. One unit [U] was defined as the amount of enzyme required to release 1 μmol of reducing sugars per hour.

[2] = test system: Gibberella zeae; format: cell-based; design: key: xx = no growth/strong inhibition; x = small inhibition; settings: start concentration 100 μg/ml
[3] = test system: Septoria tritici; experiment: Minimum inhibitory concentration (MIC) test on fungal pathogens; format: cell-based; design: key: xx = no growth/strong inhibition; x = small inhibition; settings: start concentration 100 μg/ml
[4] = Temperature, pH and NaCl optima and temperature stability of recombinant chitinases (reducing end assay); format: biochemical; settings: for Optimum pH: 30° C., pH 4-11; for Optimum salinity: 0-20% w/v NaCl
Protocol: All enzymes were first characterized regarding their temperature and pH-optima as well as the optimum NaCl content as the enzymes were isolated from a sea-water microorganism. As the future intention is to integrate these novel enzymes in a degradation processes of natural chitin, all parameters were determined using chitin powder as a substrate instead of pre-treated analogs such as colloidal chitin, glycol chitin or artificial fluorogenic substrates. […] (FIG. 5A). Next, enzyme temperature stability was investigated (FIG. 51). […] Enzyme C1 retained a 50% residual activity after 240 min incubation at 60° C., while the activity of the other chitinases dropped below 50% after 15 min and remained on that level.
Given the marine origin of the P. orarium strain, the effect of salt was also evaluated, testing the addition of NaCl to the standard buffer. […] Increasing NaCl amounts up to 20% (w/v) reduced enzyme activity substantially to 10% for C2, 4 and 5, with C1 and C3 showing highest tolerance (65% activity).
as §1
Enzyme samples were incubated at different temperature (10-60° C., 10° C. increment) and pH (4-11, increment 1) using different buffer systems (Acetate, Tris-HCl, MES, total molar concentration 100 mM), as well as NaCl content (0, 1. 2.5, 5, 10 and 20% w/v) to determine optimum reaction conditions. All experiments were carried out at 1.0 ml scale using 2 μM of the respective enzymes and a 5% (wv) suspension of chitin powder extracted from shrimp shells (˜400.000 g/mol; Carl, Roth) in 100 mM MAT buffer. For the determination of the substrate specificity, chitin powder (5% w/v), glycol chitin (10% v/v), colloidal chitin (5% w/v), chitosan [DA 15-25%, medium molecular weight, Sigma-Aldrich] (5% w/v) and microcrystalline cellulose powder (Sigma Aldrich) (5% w/v) were investigated, respectively. The effect of several potential co-factors on activity was elucidated at a concentration of 1 mM. Additionally, the effect of detergents [SDS 0.5% (w/v), Tween-20 and Triton X-100 both at 0.5% (v/v)] and chemicals (Imidazole 100 mM, EDTA 1 mM) on enzymatic activity was assessed. Samples were incubated in a thermomixer for 16 h at 900 rpm. After incubation, samples were analyzed using the enzyme assay. Thermostability was assessed after incubation of recombinant chitinases at 60° C. for different durations followed by the quantification of residual enzyme activity under standard assay conditions.

[5] = TLC analysis of cleavage patterns with chitin standard molecules; format: biochemical; settings: for hydrolysis products from chitin pentamers / hydrolysis products from chitin trimers: 4 mg/ml, 16 h, TLC; for cleavage mechanism (exo-/endo-chitinase activity): TLC of products from oligomeric or polymeric chitin substrates
Protocol: monomeric oligomers. Chitosan was degraded to a crude mixture of multiple oligomers ranging from dimers to pentamers and even larger undefined yet water-soluble fragments that migrated slightly from the starting point. Further analysis of the cleavage patterns was carried out using chitin standard molecules of DP2-DP6 and incubating them at 4 mg/ml concentration with the individual enzymes (FIG. 9).
Dimeric chitin molecules were not converted by any of the enzymes. […] All chitinases degraded chitin tetramers to dimers as a single product. […] Chitin hexamers were degraded to dimers and trimers. Although all chitinases are different in their structure and present different glycosyl hydrolase domains hydrolysis products in general were similar.
C2, 4 and 5 yielded similar product patterns when incubated with insoluble substrates. […] The presented data underline that the novel chitinases are all suited for the degradation of powdery chitin without any further harsh chemical pre-treatment.
Hydrolysis products were analyzed using 10×10 cm TLC Silica gel 60 F254 plates (Merck, Darmstadt, Germany) and a mixture of butanol:methanol:25% ammonia:H2O (5:4:2:1) as mobile phase. A total sample volume of 0.5 μl was applied in 0.25 μl spots. Chitin standard sugars (Megazyme, Chicago, USA) (5 mg/ml) were applied to the plate (0.5 μL in 0.25 μL spots) as size standard for the determination of the DP. After separation, the plate was air-dried and the developing solution (200 ml Acetone, 30 ml phosphoric acid (85%), 4 ml aniline, 4 g diphenylamine) was sprayed on the plate followed by spot visualization at 300° C. using a heat gun.

[6] = Dialysed elution fraction after IMAC

Row | Molecule | Specific activity ([1]; Culture supernatant fraction) | Specific activity [1, 6] | growth inhibition of Gibberella zeae in the MIC test [2] | growth inhibition of Septoria tritici in the MIC test [3] | residual activity ([4]; after 240 min incubation at 60° C.) | Optimum pH ([4]; chitin powder) | Optimum salinity ([4]; chitin powder, pH 8, 30° C.) | Optimum temperature ([4]; chitin powder, pH 8, range 10-60° C.) | hydrolysis products from chitin pentamers [5] | hydrolysis products from chitin trimers [5] | cleavage mechanism (exo-/endo-chitinase activity) [5] | enzyme activity (relative) ([4]; 20% (w/v) NaCl, pH 8, 30° C.) | Optimum pH ([4]; chitin powder, listed as C2)
1 | B1 | 0.10 U/mg | 3.52 U/mg | x | xx | 50% | 8 | 1 % NaCl | 30 °C | dimers and monomers | dimers and monomers | exo-chitinase activity |  | 
2 | B2 | 0.04 U/mg | 5.36 U/mg | xx | xx |  |  | 1 % NaCl |  | trimers and dimers | no activity | endo-chitinase activity | 10% | 10
